Reference: US7427595 (CORNELL RESEARCH FOUNDATION, dated 2008)
Values belong to the binder of their own block, whether it stands above or below them.

Columns and labels:
[1] = target: T1, PEPI in human bronchoalveolar lavage (BAL) fluid (human, UniProt P28799 18-593); experiment: immunoprecipitation of PEPI from BAL fluids of two individuals, anti-SLPI blot
T1 construct: Endogenous protein, immunoprecipitated with antiserum against human PEPI; also called proepithelin
T1 sequence (looked up): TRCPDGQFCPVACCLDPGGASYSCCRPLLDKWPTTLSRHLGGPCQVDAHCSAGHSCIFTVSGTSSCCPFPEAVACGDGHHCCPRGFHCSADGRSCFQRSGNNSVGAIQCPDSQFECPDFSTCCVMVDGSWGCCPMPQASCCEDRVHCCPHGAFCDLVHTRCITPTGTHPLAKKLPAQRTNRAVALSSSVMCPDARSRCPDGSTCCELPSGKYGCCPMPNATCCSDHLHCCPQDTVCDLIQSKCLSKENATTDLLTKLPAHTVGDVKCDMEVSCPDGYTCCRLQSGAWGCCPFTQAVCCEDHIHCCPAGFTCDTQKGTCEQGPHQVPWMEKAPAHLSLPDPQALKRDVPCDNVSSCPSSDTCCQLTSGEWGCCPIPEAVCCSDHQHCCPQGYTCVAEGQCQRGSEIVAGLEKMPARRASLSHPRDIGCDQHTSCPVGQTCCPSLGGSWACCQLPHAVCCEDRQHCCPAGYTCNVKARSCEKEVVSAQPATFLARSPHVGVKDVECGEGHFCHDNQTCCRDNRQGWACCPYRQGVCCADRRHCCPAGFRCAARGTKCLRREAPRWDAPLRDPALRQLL
Procedure: BAL fluids were collected from healthy adult subjects according to an institutional review board-approved protocol following informed consent. The fluids (45 ml each) were concentrated to 0.5 ml in a Centriprep (Millipore) with 10 kDa cut-off before immunoprecipitation with antiserum against human PEPI and western blotting with antisera against human SLPI or human PEPI.
To test if a SLPI-PEPI complex exists in vivo normal human bronchoalveolar lavage (BAL) fluid samples were examined because both SLPI and PEPI are strongly expressed in airway epithelium (Abe et al., 1991; Daniel et al., 2000). PEPI was immunoprecipitated from the BAL fluids collected from two individuals, and SLPI was detected in the PEPI immunoprecipitates (FIG. 2D). Thus, the SLPI-PEPI complex is physiologic.

[2] = target: T2, recombinant human SLPI (Amgen)
T2 chain: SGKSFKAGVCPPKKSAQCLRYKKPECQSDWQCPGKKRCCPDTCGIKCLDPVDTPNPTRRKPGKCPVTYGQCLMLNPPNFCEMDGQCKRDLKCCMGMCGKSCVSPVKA

[3] = target: T3, recombinant mouse SLPI (Amgen)
T3 chain: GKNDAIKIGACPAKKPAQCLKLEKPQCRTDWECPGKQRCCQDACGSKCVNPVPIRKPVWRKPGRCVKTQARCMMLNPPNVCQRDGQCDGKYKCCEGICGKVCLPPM

[4] = target: T4, recombinant human SLPI (Amgen) (human, UniProt P03973 26-132); experiment: reciprocal co-immunoprecipitation of pure recombinant proteins (anti-FLAG M2 and anti-SLPI), western blot
T4 construct: Obtained from Amgen; also called SLPIwt; wild type human SLPI
Text: PEPI and SLPI were transiently expressed in HEK293 or COS-1 cells. FLAG-tagged PEPI (aa 18-593) was expressed from pCMVI-FLAG and SLPI constructs from pcDNA3.1 (Invitrogen). SLPI constructs included mouse full length (aa 1-131), mouse N-terminal domain (aa 1-80), mouse C-terminal domain (aa 1-25/81-131), and human full-length (aa 1-131). Three days following co-transfection via SuperFect reagent (Qiagen), conditioned media were immunoprecipitated with FLAG M2 antibody (Sigma), separated by reducing SDS-PAGE and western blotted with anti-SLPI antibody (Jin et al., 1997). For in vitro immunoprecipitation assays, recombinant human PEPI or EPI (FLAG-tagged) and SLPI (5 pmol each) were incubated in 10 mM Tris-HCl (pH 7.5), 150 mM NaCl at 37° C. for 30 min before immunoprecipitation with anti-FLAG M2 antibody and western blotting with anti-SLPI antibody or the reverse.
Next, experiments were performed to ascertain which part of PEPI binds to SLPI (for the order of EPIs in PEPI, see FIG. 1A). EPIs G and F were absent in the partial PEPI sequences isolated as SLPI-binding proteins in yeast (FIG. 1A) and thus were dispensable for the interaction. […] When FLAG-tagged recombinant human EPI A or EPI B was incubated with recombinant human SLPI at an equimolar ratio (FIG. 2E) or at a molar ratio of A (or B):SLPI::1:5 (not shown), SLPI was not detected in EPI immunoprecipitates or vice versa. […]

[5] = target: T5, partial mouse PEPI (1180 bp of the ORF) in fusion with the activation domain of GAL4 (GAL4-AD), 21 two-hybrid … (yeast; mouse, UniProt P28798 197-589, limits assumed); experiment: yeast two-hybrid, growth without histidine and LacZ expression
T5 construct: EPIs G and F absent; also called proepithelin
T5 sequence: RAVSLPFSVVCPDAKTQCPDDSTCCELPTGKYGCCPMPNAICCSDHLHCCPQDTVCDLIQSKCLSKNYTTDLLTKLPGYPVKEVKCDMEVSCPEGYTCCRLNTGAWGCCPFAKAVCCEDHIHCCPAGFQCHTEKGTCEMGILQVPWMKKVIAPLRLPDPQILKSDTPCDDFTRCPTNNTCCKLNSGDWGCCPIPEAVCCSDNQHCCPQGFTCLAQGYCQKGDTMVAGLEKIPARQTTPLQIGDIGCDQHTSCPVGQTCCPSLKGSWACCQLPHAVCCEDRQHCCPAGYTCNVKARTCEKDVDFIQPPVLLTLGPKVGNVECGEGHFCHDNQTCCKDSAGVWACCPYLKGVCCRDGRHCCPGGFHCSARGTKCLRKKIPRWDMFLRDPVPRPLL

binding result [4]: no binding
B4: recombinant human EPI B (aa 206-261) with an N-terminal FLAG-6xHis tag, from insect cells (other)
chain: VMCPDARSRCPDGSTCCELPSGKYGCCPMPNATCCSDHLHCCPQDTVCDLIQSKCL
notes: also called epithelin B; not shown: N-terminal FLAG-6xHis tag

binding result [5]: no binding
B5: lamin C (other, UniProt P02545-2 67-230, looked up)
chain: EEVVSREVSGIKAAYEAELGDARKTLDSVAKERARLQLELSKVREEFKELKARNTKKEGDLIAAQARLKDLEALLNSKEAALSTALSEKRTLEGELHDLRGQVAKLEAALGEAKKQLQDEMLRRVDAENRLQTMKEELDFQKNIYSEELRETKRRHETRLVEID
notes: Non-specific control in the yeast two-hybrid test

The next lines start with the binder.

B1: SLPI in human bronchoalveolar lavage (BAL) fluid (other, UniProt P03973 26-132, looked up)
chain: T2 chain
notes: Endogenous protein
binding result [1]: binds

B2: human neutrophil elastase (Sigma) (protein)
chain: IVGGRRARPHAWPFMVSLQLRGGHFCGATLIAPNFVMSAAHCVANVNVRAVRVVLGAHNLSRREPTRQVFAVQRIFENGYDPVNLLNDIVILQLNGSATINANVQVAQLPAQGRRLGNGVQCLAMGWGLLGRNRGIASVLQELNVTVVTSLCRRSNVCTLVRGRQAGVCFGDSGSPLVCNGLIHGIASFVRGGCASGLYPDAFAPVAQFVNWIDSIIQ
cleavage of PEPI by elastase (anti-FLAG western blot) [2]: human and mouse SLPI did block the cleavage of human PEPI by elastase, human SLPI being the more potent
cleavage of PEPI by elastase (anti-FLAG western blot) [3]: human and mouse SLPI did block the cleavage of human PEPI by elastase, human SLPI being the more potent

B3: recombinant human EPI A (aa 281-337) with an N-terminal FLAG-6xHis tag, from insect cells (other)
chain: DVKCDMEVSCPDGYTCCRLQSGAWGCCPFTQAVCCEDHIHCCPAGFTCDTQKGTCEQ
notes: the construct is stated as aa 281-337; also called epithelin A; not shown: N-terminal FLAG-6xHis tag
binding result [4]: no binding
